The target of data set [1] is minimal mature VEGF-C refolded from E. coli inclusion bodies (human). Description: SEC; refolded, dialysed and concentrated material on Superdex 75 10/300 GL in PBS, 0.5-0.6 mL/min; calibrated with BSA, carbonic anhydrase and RNaseA; dimeric fractions 11.5-13.5 mL, monomeric fractions 13.5-15.5 mL.
A short description of data set [2]: IP of 35S-labelled 293T supernatants and lysates, SDS-PAGE. Particulars: glycan lost; control: wild type.

Experimental findings from publication PMC9616921 are described below.

As usually defined, the stoichiometry N is a count of units in the complex or per binding partner.

In data set [1], “minimal mature VEGF-C refolded from E. coli inclusion bodies (domain or fragment)” returned a stoichiometry N of 2.

B1: VEGF-C: N175,205W (protein)
parent chain: MHLLGFFSVACSLLAAALLPGPREAPAAAAAFESGLDLSDAEPDAGEATAYASKDLEEQLRSVSSVDELMTVLYPEYWKMYKCQLRKGGWQHNREQANLNSRTEETIKFAAAHYNTEILKSIDNEWRKTQCMPREVCIDVGKEFGVATNTFFKPPCVSVYRCGGCCNSEGLQCMNTSTSYLSKTLFEITVPLSQGPKPVTISFANHTSCRCMSKLDVYRQVHSIIRRSLPATLPQCQAANKTCPTNYMWNNHICRCLAQEDFMFSSDAGDDSTDGFHDICGPNKELDEETCQCVCRAGLRPASCGPHKELDRNSCQCVCKNKLFPSQCGANREFDENTCQCVCKRTCPRNQPLNPGKCACECTESPQKCLLKGKKFHHQTCSCYRRPCTNRQKACEPGFSYSEEVCRCVPSYWKRPQMS
As to B1, the expression_or_secretion result in data set [2] is “abolishes”.

B2: VEGF-C: N175,205Q (protein)
parent chain: B1 parent chain
Take B2: in data set [2], the expression_or_secretion result is recorded as “abolishes”.
